Reference: the nanobody polyreactivity screen of Harvey et al. (2022)

Assay: yeast display, Sf9 membrane polyspecificity reagent, FACS + sequencing; frameworks hold sequencing errors
In short: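 Polyreactivity labels are assigned by the sorting gate from which each nanobody was recovered. The gates were low and high (top ~1%), set on anti-HA fluorescence for expression and streptavidin fluorescence for reagent binding. Before sorting, galactose-induced (36–48 hours) yeast display cells were stained for 1 hour at 4 °C with 10% biotinylated, detergent-solubilized Sf9 membrane reagent.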
For “QVQLVESGGGLVQAGGSLRLSCAASGGIFYTYAMGWYRQAPGKEREFVAAISRRGSSTYYADSVKGRFTISRDNEKNTVYLQMNSLKPEDTAVYYCAKSYAPYSYANNDYWGQGTQVTVSS”, the “polyreactivity (PSR sort gate)” value was “low polyreactivity”. In the case of “QVQLVESGGGLVQAGGSLRLSCAASGGIISTNAMGWYRQAPGKERDLVAAISRRGGSTYYADSVKGRFTISRDYAKNSVYLQMNCLKPEDTAVYYCNKYLRLFSYGRGYDYWGQGTQVTVSS”, the “polyreactivity (PSR sort gate)” value is reported as “high polyreactivity”. With “QVQLVESGGGLVQAGGSLRLSCAASGGILDTSAMGWYRQAPGKERELVAAITSGGHTNYADSVKGRFTISRDNAKNTVYLQMNSLKPEDTAVYYCNVVTWYYVFRPWEYDYWGHGTQVTVSS” the “polyreactivity (PSR sort gate)” value was “low polyreactivity”. For “QVQLVESGGGLVQAGGSLRLSCAASGGILPKYAMGWYRQAPGKERELVAAIDGGGDSTYYADSVKGRFTISRDNAKNTVYLQMNSLKPEDTAVFYCAAYQWTGYYLEYDYWGQGTQVTVSS”, the “polyreactivity (PSR sort gate)” value was “low polyreactivity”. With “QVQLVESGGGLVQAGGSLRLSCAASGGILSDYAMGWYRQAPWKERELVAAITISGGRTNYADSVKGRFTISRDNAKNTVYLQMNSLKPEDTAVYYCAAGFYPYYYWGQGTQVTVSS” the “polyreactivity (PSR sort gate)” value was “low polyreactivity”. With “QVQLVESGGGLVQAGGSLRLSCAASGGILTKYAMGWYRQAPGKEREFVAAISWRGGTTYYADSVKGRFTISRDNAKNTVYLQMNSLKPEDSAVYYCAADILWYFGQEYDYWGKGTQVTVSS” the “polyreactivity (PSR sort gate)” value was “low polyreactivity”. For “QVQLVESGGGLVQAGGSLRLSCAASGGILVGYALGWYRQAPGKERELVAAITSTGSTYYADSVKGRFTISRDNAKNTVYLQMNSLKPEDTAVYYCNAIGLHRYDYWGQGTQETVSS”, the “polyreactivity (PSR sort gate)” value was “low polyreactivity”. In the case of “QVQLVESGGGLVQAGGSLRLSCAASGGILVGYAMGRYRQAPGKERELVAANNYSGGSTNYADSVKGRFTISRDNAKYSVYLQMNSLKPEDTAVYFCAARSTARYGYWGQGTQVTVSS”, the “polyreactivity (PSR sort gate)” value is reported as “low polyreactivity”. With “QVQLVESGGGLVQAGGSLRLSCAASGGISHRYAMGWYRQAPGKERELVAAITASGTSTNYADSVKGRFTISRDNAKNTVYLQMNSLKPEDTAVYYCAARYYSFFYPYYYWGQGTQVTVSS” the “polyreactivity (PSR sort gate)” value was “high polyreactivity”. For “QVQLVESGGGLVQAGGSLRLSCAASGGIVDSNAMGWYRQAPGKERELVAAISDSGGSTYYADSVKGRFTISRDNAKNTVYLQMNSLKPEDTAVYYCAADSDYHFVNYRFGMDYWGQGTQVTVSS”, the “polyreactivity (PSR sort gate)” value was “low polyreactivity”. In the case of “QVQLVESGGGLVQAGGSLRLSCAASGGIYYSNAMGWYRQAPGKERELVAAISRDGTITYYADSEKGRFTSSRDNAKNTVYLQMNSLKPEDTAVYSCASDPSIPSWYSIYVYWGQGTQVTVSS”, the “polyreactivity (PSR sort gate)” value is reported as “high polyreactivity”. With “QVQLVESGGGLVQAGGSLRLSCAASGGMGWYRQAPGKERELVATISSVGSTNYADSVKGRFTISRDNAKNTVYLQMNSLKPEDTAVYYCNANGVQYFLYGYWGQGTQVTVSS” the “polyreactivity (PSR sort gate)” value was “low polyreactivity”. For “QVQLVESGGGLVQAGGSLRLSCAASGGNFGYYAMGWYRQAPGKEREFVAAITLSGGRTYYADSVKGRFTISRDNAKNTVYLQMNSLKPEDTAVYYCAAKGTRRGKERNYWGQGTQVTVSS”, the “polyreactivity (PSR sort gate)” value was “high polyreactivity”. With “QVQLVESGGGLVQAGGSLRLSCAASGGNFVSYAMGWYRQAPGKERDLVARINSVDGTNYADSVKGRFTISRDNAKNTVYLQMNSLKPEDTAVYYCATGGYYSAIVYGGYDYWGQGTQVTVSS” the “polyreactivity (PSR sort gate)” value was “low polyreactivity”. In the case of “QVQLVESGGGLVQAGGSLRLSCAASGGSFPDNARGWYRQAPGKERELVAAISFSGSSTYADSVKGRFTISRDNAKKTVNLQMNSLKPEDTAVYYCNTDGYIYRYRFDYWGQGTQVTVSS”, the “polyreactivity (PSR sort gate)” value is reported as “low polyreactivity”. In the case of “QVQLVESGGGLVQAGGSLRLSCAASGGTFFSYAMGWYRQAPGKERELVAAISRGGDTTYADSVKGRFTISRDNAKNTVYLQMNSLKPEDTAVYYCAARVPPLLTDSPVFPYDYWGQGTQVTVSS”, the “polyreactivity (PSR sort gate)” value is reported as “low polyreactivity”. For “QVQLVESGGGLVQAGGSLRLSCAASGGTFFVYAMGWSRPAPGKERELVAAISGSGGRTYYADSVKGRFTISRDNAKNTVYLQMNSLTPEDTAVYYCNATYLTRSTRLSDFDYWGQGTQVTVSS”, the “polyreactivity (PSR sort gate)” value was “high polyreactivity”. In the case of “QVQLVESGGGLVQAGGSLRLSCAASGGTFGAYAMGWYRQAPGKERELVAAISGSGARTYYADSVKGRFTISRDNAKNTVYVQMNSLKPEDTAVYYCAARSTGTRVGEYDYWGQGTQVTVSS”, the “polyreactivity (PSR sort gate)” value is reported as “high polyreactivity”. For “QVQLVESGGGLVQAGGSLRLSCAASGGTFGLNAMGWYRQAPGKERELVAAITVTGGSDTYYADSVKGRFTISRDNAKNTVYLQMNSLKPEDTAVYYCAADIGKLYDYWGQGTQVTVSS”, the “polyreactivity (PSR sort gate)” value was “low polyreactivity”. In the case of “QVQLVESGGGLVQAGGSLRLSCAASGGTFGPYAMGWYRQAPGKERELVATIRSSGGRTYYADSVKGRFTISRDNAKNTVYFQMNSLKPEDTAVYYCAATEFRYFEGGAYFEGYYWGQGTQVTVSS”, the “polyreactivity (PSR sort gate)” value is reported as “low polyreactivity”. In the case of “QVQLVESGGGLVQAGGSLRLSCAASGGTFGPYAMGWYSQAPGKERELVATIRSSGGRTYYADSVTGRFTISRDNAKNTVYFQMNSLKPEDTAVYYCAADNLRQFGEYDYWGQGTQVTVSS”, the “polyreactivity (PSR sort gate)” value is reported as “low polyreactivity”. With “QVQLVESGGGLVQAGGSLRLSCAASGGTFGRYTMGWYRQAPGKERELVATITIGGGTNYADSVKGRFTISRDNAKNTVYLQMNSLKPEDTAVYYCARAWRWRCRYYEYGYWGQGTQVTVSS” the “polyreactivity (PSR sort gate)” value was “high polyreactivity”. In the case of “QVQLVESGGGLVQAGGSLRLSCAASGGTFGSNAMGWYRPAPGKERELVAAISTTGGTTYYADSVKGRFTISRDNAKNTVYLQMNSLKPEDPAVYYCAKDGYVYGDWYTYAYDYWGQGTQVTVSS”, the “polyreactivity (PSR sort gate)” value is reported as “low polyreactivity”. In the case of “QVQLVESGGGLVQAGGSLRLSCAASGGTFGVNTMGWYSHAPGKERELVAAISNRGVSTYYADSVKGRFTISRDNAKNTVYLQMNSQKPEDTAVYYCASTNSYVYSITLDRYDYWGQGTQVTVSS”, the “polyreactivity (PSR sort gate)” value is reported as “low polyreactivity”. In the case of “QVQLVESGGGLVQAGGSLRLSCAASGGTFGVYYAMGRYRQAPGKERELVADISWSAGSTYYADSVKGRFTISRDNAKNTVYLQMNSLKPEDTAVYYCAARYAVYWPWYVREYDYWGQGTQVTVSS”, the “polyreactivity (PSR sort gate)” value is reported as “low polyreactivity”. For “QVQLVESGGGLVQAGGSLRLSCAASGGTFGYNVMGWYRQAPGKERELVAAISYSVGGTYYADSVKGRFTISRDNAKNTVYLQMNSLKPEDTEVYYCAATGRRRTYSEYEYWGQGTQVTVSS”, the “polyreactivity (PSR sort gate)” value was “high polyreactivity”. In the case of “QVQLVESGGGLVQAGGSLRLSCAASGGTFHKYDMGWYRQAPGKERELVAYADSVKGRFTISRDNAKNTVYLQMNSLKPEDTAVYYCNADWQSYGYLCHSSLYYYWGQGTQVTVSS”, the “polyreactivity (PSR sort gate)” value is reported as “low polyreactivity”. With “QVQLVESGGGLVQAGGSLRLSCAASGGTFHRNAMGWYRQAPGKERELVAAITSSGGSTNYADSVKGRFTISRDNAKYTVYLQMNSLKPEETAVYYCATDRYRYTSHPWSRGFDYLGQGTQVTVSS” the “polyreactivity (PSR sort gate)” value was “low polyreactivity”. For “QVQLVESGGGLVQAGGSLRLSCAASGGTFHSNAMGWYRQAPGKERELVASINWSGGSTYYADSVKGRFTISRDNAKNTDYLQMNSLKPEDTAVYYCAARESYPGYGYDHWGQGTQVTVSS”, the “polyreactivity (PSR sort gate)” value was “low polyreactivity”. With “QVQLVESGGGLVQAGGSLRLSCAASGGTFHYNAMGWSRQAPGKERELVAAITESGGRTYYADSVKGRFTISRDNAKNTVYLQMNSLKPEDTAVYYCNADQDYDAAYRSDYWGQGTQVTVSS” the “polyreactivity (PSR sort gate)” value was “low polyreactivity”. For “QVQLVESGGGLVQAGGSLRLSCAASGGTFKFYAMGWYRQAPGKERELVAAISWSGTSTYYADSVKGRFTISRDNAKNTVYLQMNSLKPEDTAVYYCAADKRLRGHGYDYWGQGTQVTVSS”, the “polyreactivity (PSR sort gate)” value was “high polyreactivity”. In the case of “QVQLVESGGGLVQAGGSLRLSCAASGGTFKLYAMGWYRQAPGKERELVAAISRRGGSTYYADSVKVRFTISRDNAKNTVYLQMNSLKPEDTAVYYCAAPGPTQSTQRGGYWGQGTQVTVSS”, the “polyreactivity (PSR sort gate)” value is reported as “high polyreactivity”. In the case of “QVQLVESGGGLVQAGGSLRLSCAASGGTFKRNAMGWYRQAPGKERELVAAISTSGATTYYADSVKGRFTISRDNAKNTVYLQMNSLKPEDTAVYYCNAVGDARYNYWGQGTQVTVSS”, the “polyreactivity (PSR sort gate)” value is reported as “high polyreactivity”. In the case of “QVQLVESGGGLVQAGGSLRLSCAASGGTFKSAYVMGWYRQAPGKERELVAAIDSTGSTNYADSVKGRFTISRDNAKNTVYLQMNSLKPEDTAVYYCNADRRELYYDPMDYWGQGTQVTVSS”, the “polyreactivity (PSR sort gate)” value is reported as “low polyreactivity”. In the case of “QVQLVESGGGLVQAGGSLRLSCAASGGTFLINAMGWYRQAPGKERELVATITSGGTTYYADSVKGRFTISRDNAKNTVYLQMNSLKPEDTAVYYCATRGKGRYGYDSWGQGTQVTVSS”, the “polyreactivity (PSR sort gate)” value is reported as “low polyreactivity”. With “QVQLVESGGGLVQAGGSLRLSCAASGGTFPAYTMGWYRQAPGKERELVAAITWSGGNTYYADSVKGRFTISRDNAKNTVYLQMNSLKPQDTAVYYCAAEYWQYQWSVRIDYEYWGQGTQVTVSS” the “polyreactivity (PSR sort gate)” value was “high polyreactivity”. With “QVQLVESGGGLVQAGGSLRLSCAASGGTFPQNVMGWYRPAPGKERELVAAISSGGSTYYADSVKVRFTISRDNAKNTVYFQMNSLIPEDTGVYYCAKRRWYRYDYWGQGTQVTVSS” the “polyreactivity (PSR sort gate)” value was “high polyreactivity”. With “QVQLVESGGGLVQAGGSLRLSCAASGGTFPVYALGWYRQAPGKERELVAAISYSGVTTYYADSVKGRFTISRDNAKNTVYLQMNSLKPEDTAVYYCNADWRRWYIFSYDYWGQGTQVTVSS” the “polyreactivity (PSR sort gate)” value was “low polyreactivity”. For “QVQLVESGGGLVQAGGSLRLSCAASGGTFPWYTMGWYRQAPGKERELVAAISVSGDSTHYADSVKGRFTISRDNAKNTVYLQMNSLKPEDTAVYYCAATYLVSSDKYDYWGQGTQVTVSS”, the “polyreactivity (PSR sort gate)” value was “high polyreactivity”. With “QVQLVESGGGLVQAGGSLRLSCAASGGTFPYNAMGWYRQAAGKERELVAAISSSGTSTYYADSVKRRFTISRDNAKNTVYLQMNSLKPEDTAVYYCNDYFKRYDYWGQGTQVTVSS” the “polyreactivity (PSR sort gate)” value was “high polyreactivity”. In the case of “QVQLVESGGGLVQAGGSLRLSCAASGGTFPYNAMGWYRQAPGKERELVAAISSSGTSTYYADSVKGRFTISRDNAKNTVYLQMNSLKPEDTAVYYCNDYFKRYDYWGQGTQVTVSS”, the “polyreactivity (PSR sort gate)” value is reported as “high polyreactivity”. With “QVQLVESGGGLVQAGGSLRLSCAASGGTFPYYAMGWYRQAPGKERELVAAISSSGGRTYYADSVKGRFTISRDNAKNTVYLQMNSLKPEDTAVYYCAKDTYGFAANRPAGDGYWGQGTQVTVSS” the “polyreactivity (PSR sort gate)” value was “high polyreactivity”. In the case of “QVQLVESGGGLVQAGGSLRLSCAASGGTFPYYAMGWYRQAPGKERELVADISGTDGSTYYADSVKGRFTISRDNAKTTVYLQMNSLKPEDTAVYYCNADPHWWYWDYDYWGQGTQVTVSS”, the “polyreactivity (PSR sort gate)” value is reported as “high polyreactivity”.
